Measured values as given in the supplement of paper PMC10065799, “High-throughput profiling of sequence recognition by tyrosine kinases and SH2 domains using bacterial peptide display” (eLife, 2023).
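Note: 11-residue human phosphosite peptides and single-mutation variants displayed on the E. coli surface, counted by deep sequencing, each peptide's frequency after selection divided by its frequency in the unselected input library; frequency after pTyr selection over input frequency; kinase dosed for 20-30% of maximal phosphorylation in three min.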

These sequences were tested against Hck (UniProt P08631) (assay: phosphorylation enrichment, bacterial display (enrichment ratio); higher = better substrate or ligand; peptides without Tyr show the background).
Sequence of Hck (P08631 whole entry, looked up): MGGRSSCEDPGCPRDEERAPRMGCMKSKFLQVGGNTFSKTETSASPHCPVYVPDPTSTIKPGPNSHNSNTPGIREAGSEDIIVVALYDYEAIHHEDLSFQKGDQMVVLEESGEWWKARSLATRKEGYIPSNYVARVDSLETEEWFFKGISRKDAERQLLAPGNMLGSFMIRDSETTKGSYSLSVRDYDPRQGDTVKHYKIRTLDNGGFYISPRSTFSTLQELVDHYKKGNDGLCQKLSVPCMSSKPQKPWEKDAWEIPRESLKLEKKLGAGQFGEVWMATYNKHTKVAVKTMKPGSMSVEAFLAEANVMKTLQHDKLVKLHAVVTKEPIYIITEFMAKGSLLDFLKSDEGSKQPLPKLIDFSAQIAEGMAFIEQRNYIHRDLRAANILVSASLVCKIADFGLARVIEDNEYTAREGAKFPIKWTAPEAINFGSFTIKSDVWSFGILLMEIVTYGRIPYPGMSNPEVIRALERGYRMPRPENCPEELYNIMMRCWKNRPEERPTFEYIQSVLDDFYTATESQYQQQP
SEASGYQDNIA [DES_Y363] was tested, and the phosphorylation enrichment was 0.485.
NPQKSYFIHLF [WAS_Y83_R86H_YF] was tested, and the phosphorylation enrichment was 0.431.
KWHREYNFKFV [RICTOR_Y835_S837F_YF] was tested, and the phosphorylation enrichment was 0.432.
For RRAKGYPIYLY [ITGB2_Y125_D128Y], the phosphorylation enrichment was 0.807.
SVTRTYSPALN [TP53_Y126_C124R] was tested, and the phosphorylation enrichment was 0.345.
FPRTGYSVPFG [TGM1_Y370_L366P_YF] showed a phosphorylation enrichment of 0.419.
For QAQMDYRRWQP [MPL_Y591_L594W], the phosphorylation enrichment was 0.424.
Sequence RLIEGYTGPFK [ZNF862_Y181] has a phosphorylation enrichment of 1.3.
TEFIQYVRRKN [MAX_Y73_M74V_YF] showed a phosphorylation enrichment of 0.559.
NPQKSYLIRLY [WAS_Y83_F84L] gave a phosphorylation enrichment of 0.47.
Sequence PFTRNYYVRAV [CYBA_Y87] has a phosphorylation enrichment of 0.666.
Work on SLTCTYSPALN [TP53_Y126_V122L] yielded a phosphorylation enrichment of 0.818.
Work on YFRDGCMPRQY [GSS_Y270_Y270C] yielded a phosphorylation enrichment of 0.438.
RHLREYPDLLN [DES_Y388_Q389P] was tested, and the phosphorylation enrichment was 0.53.
IGNGFYFHVFS [MYBPC3_Y1136_R1138H_YF] showed a phosphorylation enrichment of 0.423.
For DRLAVYIDRVP [LMNA_Y45_R50P], the phosphorylation enrichment was 0.468.
DRLASYSDKVR [KRT10_Y160_L161S] showed a phosphorylation enrichment of 0.387.
With RVYRDYVLKSA [HTATIP2_Y111_D108Y] the phosphorylation enrichment was 0.841.
RLLVVYPRTQR [HBB_Y36_W38R] was tested, and the phosphorylation enrichment was 0.704.
Sequence FAELVYTVFWH [ASS1_Y322_G324V] has a phosphorylation enrichment of 5.47.
For ELQDDYEDMME [SLC4A1_Y8], the phosphorylation enrichment was 0.659.
DEEDTYTMPST [PTK2_Y407] was tested, and the phosphorylation enrichment was 1.83.
In the case of AIDVGYRHIDC [AKR1B1_Y40], the phosphorylation enrichment is reported as 0.457.
Work on LLTKVYVVEGS [ZMPSTE24_Y253_P248L] yielded a phosphorylation enrichment of 0.795.
For YEHVGYTTLNR [CHN1_Y148], the phosphorylation enrichment was 2.79.
KAWTIYHPEDS [ZBP1_Y165_R166H] showed a phosphorylation enrichment of 0.569.
NYGTNYRVGSS [CPO_Y278_K273N] gave a phosphorylation enrichment of 0.465.
In the case of VSSIPYGQPKQ [NEU1_Y251_G248S], the phosphorylation enrichment is reported as 0.493.
PVQAAYEKVVA [HBB_Y131_Q132E] showed a phosphorylation enrichment of 0.591.
HFGCVYLGTLL [MET_Y1093_H1094L] showed a phosphorylation enrichment of 1.01.
For RHLREYQDLLI [DES_Y388_N393I], the phosphorylation enrichment was 0.592.
With SDRNLYSKNLV [CFAP58_Y501] the phosphorylation enrichment was 0.555.
With HNQDGYSYPSR [LDLR_Y845] the phosphorylation enrichment was 0.618.

Each sequence was assayed against Jak2 (UniProt O60674) in the same assay as above.
Sequence of Jak2 (O60674 whole entry, looked up): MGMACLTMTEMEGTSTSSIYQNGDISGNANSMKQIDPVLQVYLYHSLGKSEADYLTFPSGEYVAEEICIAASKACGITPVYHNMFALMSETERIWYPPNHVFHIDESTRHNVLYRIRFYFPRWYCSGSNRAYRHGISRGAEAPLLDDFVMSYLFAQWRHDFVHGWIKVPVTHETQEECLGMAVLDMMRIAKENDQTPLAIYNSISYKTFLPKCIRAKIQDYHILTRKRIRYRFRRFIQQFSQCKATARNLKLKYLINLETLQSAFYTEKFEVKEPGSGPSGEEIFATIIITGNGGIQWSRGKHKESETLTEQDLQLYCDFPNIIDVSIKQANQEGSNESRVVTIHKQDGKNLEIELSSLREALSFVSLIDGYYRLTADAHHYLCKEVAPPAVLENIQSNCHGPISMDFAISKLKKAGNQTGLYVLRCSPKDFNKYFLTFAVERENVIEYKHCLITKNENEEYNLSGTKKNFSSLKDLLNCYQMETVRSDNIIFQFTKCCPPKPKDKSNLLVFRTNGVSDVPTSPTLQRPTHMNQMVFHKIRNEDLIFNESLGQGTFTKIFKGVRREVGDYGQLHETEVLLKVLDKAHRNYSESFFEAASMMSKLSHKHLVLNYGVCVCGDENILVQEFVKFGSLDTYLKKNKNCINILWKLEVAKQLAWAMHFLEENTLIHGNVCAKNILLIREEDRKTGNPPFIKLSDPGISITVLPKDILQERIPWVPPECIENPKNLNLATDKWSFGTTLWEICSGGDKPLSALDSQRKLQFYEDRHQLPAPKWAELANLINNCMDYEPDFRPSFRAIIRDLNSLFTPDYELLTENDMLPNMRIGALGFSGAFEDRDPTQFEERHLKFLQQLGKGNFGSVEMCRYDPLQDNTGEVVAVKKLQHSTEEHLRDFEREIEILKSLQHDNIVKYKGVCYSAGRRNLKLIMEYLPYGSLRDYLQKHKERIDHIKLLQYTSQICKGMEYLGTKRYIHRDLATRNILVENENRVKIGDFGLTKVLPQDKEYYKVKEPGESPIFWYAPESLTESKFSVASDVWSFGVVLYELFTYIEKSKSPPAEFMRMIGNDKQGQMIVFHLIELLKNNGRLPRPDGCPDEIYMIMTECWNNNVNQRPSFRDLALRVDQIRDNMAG
With SEASGYQDNIA [DES_Y363] the phosphorylation enrichment was 0.783.
Work on NPQKSYFIHLF [WAS_Y83_R86H_YF] yielded a phosphorylation enrichment of 1.29.
With KWHREYNFKFV [RICTOR_Y835_S837F_YF] the phosphorylation enrichment was 0.937.
In the case of RRAKGYPIYLY [ITGB2_Y125_D128Y], the phosphorylation enrichment is reported as 0.682.
For SVTRTYSPALN [TP53_Y126_C124R], the phosphorylation enrichment was 0.429.
Work on FPRTGYSVPFG [TGM1_Y370_L366P_YF] yielded a phosphorylation enrichment of 0.688.
For QAQMDYRRWQP [MPL_Y591_L594W], the phosphorylation enrichment was 0.762.
For RLIEGYTGPFK [ZNF862_Y181], the phosphorylation enrichment was 1.79.
For TEFIQYVRRKN [MAX_Y73_M74V_YF], the phosphorylation enrichment was 0.521.
Sequence NPQKSYLIRLY [WAS_Y83_F84L] has a phosphorylation enrichment of 0.74.
PFTRNYYVRAV [CYBA_Y87] gave a phosphorylation enrichment of 0.85.
Work on SLTCTYSPALN [TP53_Y126_V122L] yielded a phosphorylation enrichment of 1.57.
Work on YFRDGCMPRQY [GSS_Y270_Y270C] yielded a phosphorylation enrichment of 0.833.
Work on RHLREYPDLLN [DES_Y388_Q389P] yielded a phosphorylation enrichment of 0.73.
IGNGFYFHVFS [MYBPC3_Y1136_R1138H_YF] was tested, and the phosphorylation enrichment was 1.28.
DRLAVYIDRVP [LMNA_Y45_R50P] gave a phosphorylation enrichment of 0.911.
Work on DRLASYSDKVR [KRT10_Y160_L161S] yielded a phosphorylation enrichment of 0.503.
In the case of RVYRDYVLKSA [HTATIP2_Y111_D108Y], the phosphorylation enrichment is reported as 0.836.
For RLLVVYPRTQR [HBB_Y36_W38R], the phosphorylation enrichment was 1.07.
In the case of FAELVYTVFWH [ASS1_Y322_G324V], the phosphorylation enrichment is reported as 2.27.
In the case of ELQDDYEDMME [SLC4A1_Y8], the phosphorylation enrichment is reported as 0.956.
DEEDTYTMPST [PTK2_Y407] gave a phosphorylation enrichment of 1.25.
With AIDVGYRHIDC [AKR1B1_Y40] the phosphorylation enrichment was 0.635.
LLTKVYVVEGS [ZMPSTE24_Y253_P248L] was tested, and the phosphorylation enrichment was 1.23.
YEHVGYTTLNR [CHN1_Y148] showed a phosphorylation enrichment of 0.725.
Work on KAWTIYHPEDS [ZBP1_Y165_R166H] yielded a phosphorylation enrichment of 0.871.
NYGTNYRVGSS [CPO_Y278_K273N] gave a phosphorylation enrichment of 0.441.
VSSIPYGQPKQ [NEU1_Y251_G248S] was tested, and the phosphorylation enrichment was 0.844.
Work on PVQAAYEKVVA [HBB_Y131_Q132E] yielded a phosphorylation enrichment of 0.568.
With HFGCVYLGTLL [MET_Y1093_H1094L] the phosphorylation enrichment was 2.07.
For RHLREYQDLLI [DES_Y388_N393I], the phosphorylation enrichment was 0.74.
SDRNLYSKNLV [CFAP58_Y501] showed a phosphorylation enrichment of 0.491.
HNQDGYSYPSR [LDLR_Y845] was tested, and the phosphorylation enrichment was 0.831.

These sequences were tested against MERTK (UniProt Q12866) in the same assay as above.
Sequence of MERTK (Q12866 whole entry, looked up): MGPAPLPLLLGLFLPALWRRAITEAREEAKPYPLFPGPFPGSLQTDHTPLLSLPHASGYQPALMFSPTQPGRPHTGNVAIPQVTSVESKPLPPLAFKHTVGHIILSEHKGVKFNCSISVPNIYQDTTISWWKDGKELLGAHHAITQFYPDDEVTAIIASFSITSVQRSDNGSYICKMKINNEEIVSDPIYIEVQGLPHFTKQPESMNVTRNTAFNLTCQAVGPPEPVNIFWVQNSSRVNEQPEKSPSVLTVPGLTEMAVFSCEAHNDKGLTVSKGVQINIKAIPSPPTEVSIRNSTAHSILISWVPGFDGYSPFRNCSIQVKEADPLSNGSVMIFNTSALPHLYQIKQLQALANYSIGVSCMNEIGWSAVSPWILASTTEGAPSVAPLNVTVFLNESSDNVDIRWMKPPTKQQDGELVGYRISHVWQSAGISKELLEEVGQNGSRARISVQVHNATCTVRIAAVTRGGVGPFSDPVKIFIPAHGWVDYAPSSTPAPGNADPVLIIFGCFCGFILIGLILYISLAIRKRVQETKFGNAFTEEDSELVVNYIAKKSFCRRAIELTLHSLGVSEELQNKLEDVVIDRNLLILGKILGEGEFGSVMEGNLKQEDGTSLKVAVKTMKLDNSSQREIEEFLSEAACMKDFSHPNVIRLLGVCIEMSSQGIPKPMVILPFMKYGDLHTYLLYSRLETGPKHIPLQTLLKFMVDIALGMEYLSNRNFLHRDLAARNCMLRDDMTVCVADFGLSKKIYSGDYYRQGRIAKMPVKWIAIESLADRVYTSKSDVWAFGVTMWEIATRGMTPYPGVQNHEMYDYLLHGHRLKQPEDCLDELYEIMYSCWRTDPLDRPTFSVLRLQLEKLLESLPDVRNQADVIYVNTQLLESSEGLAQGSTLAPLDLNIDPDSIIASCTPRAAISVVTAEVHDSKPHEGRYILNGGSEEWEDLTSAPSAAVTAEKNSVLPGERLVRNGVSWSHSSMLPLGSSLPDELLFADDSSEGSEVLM
SEASGYQDNIA [DES_Y363] showed a phosphorylation enrichment of 0.515.
Sequence NPQKSYFIHLF [WAS_Y83_R86H_YF] has a phosphorylation enrichment of 0.384.
For KWHREYNFKFV [RICTOR_Y835_S837F_YF], the phosphorylation enrichment was 0.436.
With RRAKGYPIYLY [ITGB2_Y125_D128Y] the phosphorylation enrichment was 0.698.
SVTRTYSPALN [TP53_Y126_C124R] was tested, and the phosphorylation enrichment was 0.313.
Work on FPRTGYSVPFG [TGM1_Y370_L366P_YF] yielded a phosphorylation enrichment of 0.485.
Work on QAQMDYRRWQP [MPL_Y591_L594W] yielded a phosphorylation enrichment of 0.373.
Sequence RLIEGYTGPFK [ZNF862_Y181] has a phosphorylation enrichment of 1.23.
Work on TEFIQYVRRKN [MAX_Y73_M74V_YF] yielded a phosphorylation enrichment of 0.639.
With NPQKSYLIRLY [WAS_Y83_F84L] the phosphorylation enrichment was 0.388.
Sequence PFTRNYYVRAV [CYBA_Y87] has a phosphorylation enrichment of 0.608.
SLTCTYSPALN [TP53_Y126_V122L] gave a phosphorylation enrichment of 0.522.
Sequence YFRDGCMPRQY [GSS_Y270_Y270C] has a phosphorylation enrichment of 0.406.
With RHLREYPDLLN [DES_Y388_Q389P] the phosphorylation enrichment was 0.569.
IGNGFYFHVFS [MYBPC3_Y1136_R1138H_YF] showed a phosphorylation enrichment of 0.419.
DRLAVYIDRVP [LMNA_Y45_R50P] was tested, and the phosphorylation enrichment was 0.331.
DRLASYSDKVR [KRT10_Y160_L161S] was tested, and the phosphorylation enrichment was 0.43.
RVYRDYVLKSA [HTATIP2_Y111_D108Y] showed a phosphorylation enrichment of 0.693.
Sequence RLLVVYPRTQR [HBB_Y36_W38R] has a phosphorylation enrichment of 0.658.
Work on FAELVYTVFWH [ASS1_Y322_G324V] yielded a phosphorylation enrichment of 8.06.
Work on ELQDDYEDMME [SLC4A1_Y8] yielded a phosphorylation enrichment of 0.451.
Work on DEEDTYTMPST [PTK2_Y407] yielded a phosphorylation enrichment of 0.657.
With AIDVGYRHIDC [AKR1B1_Y40] the phosphorylation enrichment was 0.366.
In the case of LLTKVYVVEGS [ZMPSTE24_Y253_P248L], the phosphorylation enrichment is reported as 0.668.
In the case of YEHVGYTTLNR [CHN1_Y148], the phosphorylation enrichment is reported as 4.18.
KAWTIYHPEDS [ZBP1_Y165_R166H] showed a phosphorylation enrichment of 0.474.
Sequence NYGTNYRVGSS [CPO_Y278_K273N] has a phosphorylation enrichment of 0.368.
In the case of VSSIPYGQPKQ [NEU1_Y251_G248S], the phosphorylation enrichment is reported as 0.425.
Sequence PVQAAYEKVVA [HBB_Y131_Q132E] has a phosphorylation enrichment of 0.507.
For HFGCVYLGTLL [MET_Y1093_H1094L], the phosphorylation enrichment was 0.597.
RHLREYQDLLI [DES_Y388_N393I] showed a phosphorylation enrichment of 0.482.
Work on SDRNLYSKNLV [CFAP58_Y501] yielded a phosphorylation enrichment of 0.748.
With HNQDGYSYPSR [LDLR_Y845] the phosphorylation enrichment was 0.913.

The sequences below were run on c-Abl (mouse) in the same assay as above.
With SEASGYQDNIA [DES_Y363] the phosphorylation enrichment was 0.616.
Sequence NPQKSYFIHLF [WAS_Y83_R86H_YF] has a phosphorylation enrichment of 0.77.
For KWHREYNFKFV [RICTOR_Y835_S837F_YF], the phosphorylation enrichment was 0.729.
Sequence RRAKGYPIYLY [ITGB2_Y125_D128Y] has a phosphorylation enrichment of 0.951.
SVTRTYSPALN [TP53_Y126_C124R] showed a phosphorylation enrichment of 0.427.
With FPRTGYSVPFG [TGM1_Y370_L366P_YF] the phosphorylation enrichment was 1.11.
QAQMDYRRWQP [MPL_Y591_L594W] showed a phosphorylation enrichment of 0.745.
RLIEGYTGPFK [ZNF862_Y181] showed a phosphorylation enrichment of 1.12.
TEFIQYVRRKN [MAX_Y73_M74V_YF] showed a phosphorylation enrichment of 0.435.
With NPQKSYLIRLY [WAS_Y83_F84L] the phosphorylation enrichment was 0.522.
PFTRNYYVRAV [CYBA_Y87] gave a phosphorylation enrichment of 0.747.
SLTCTYSPALN [TP53_Y126_V122L] showed a phosphorylation enrichment of 1.65.
With YFRDGCMPRQY [GSS_Y270_Y270C] the phosphorylation enrichment was 0.72.
RHLREYPDLLN [DES_Y388_Q389P] was tested, and the phosphorylation enrichment was 0.404.
In the case of IGNGFYFHVFS [MYBPC3_Y1136_R1138H_YF], the phosphorylation enrichment is reported as 1.04.
DRLAVYIDRVP [LMNA_Y45_R50P] was tested, and the phosphorylation enrichment was 0.654.
DRLASYSDKVR [KRT10_Y160_L161S] gave a phosphorylation enrichment of 0.42.
Work on RVYRDYVLKSA [HTATIP2_Y111_D108Y] yielded a phosphorylation enrichment of 0.624.
RLLVVYPRTQR [HBB_Y36_W38R] showed a phosphorylation enrichment of 0.799.
FAELVYTVFWH [ASS1_Y322_G324V] gave a phosphorylation enrichment of 12.5.
ELQDDYEDMME [SLC4A1_Y8] showed a phosphorylation enrichment of 0.56.
DEEDTYTMPST [PTK2_Y407] showed a phosphorylation enrichment of 1.12.
Sequence AIDVGYRHIDC [AKR1B1_Y40] has a phosphorylation enrichment of 0.629.
With LLTKVYVVEGS [ZMPSTE24_Y253_P248L] the phosphorylation enrichment was 0.773.
In the case of YEHVGYTTLNR [CHN1_Y148], the phosphorylation enrichment is reported as 1.01.
In the case of KAWTIYHPEDS [ZBP1_Y165_R166H], the phosphorylation enrichment is reported as 0.723.
Work on NYGTNYRVGSS [CPO_Y278_K273N] yielded a phosphorylation enrichment of 0.372.
VSSIPYGQPKQ [NEU1_Y251_G248S] gave a phosphorylation enrichment of 0.464.
With PVQAAYEKVVA [HBB_Y131_Q132E] the phosphorylation enrichment was 0.551.
HFGCVYLGTLL [MET_Y1093_H1094L] was tested, and the phosphorylation enrichment was 1.39.
RHLREYQDLLI [DES_Y388_N393I] gave a phosphorylation enrichment of 0.708.
For SDRNLYSKNLV [CFAP58_Y501], the phosphorylation enrichment was 0.467.
Work on HNQDGYSYPSR [LDLR_Y845] yielded a phosphorylation enrichment of 0.823.
